Experimental data from patent publication US5863888A, “Human Bek Fibroblast growth factor receptor” (Rhone-Poulenc Rorer Pharmaceuticals Inc., priority 1995, dated 1999).
Read-outs that look alike come from different tables or passages of the source.

Key:
flg = assay: Saturation (equilibrium) binding of [125I]FGF to flg-overexpressing cells, Scatchard analysis; design: species or system human; conditions: for binding of [125I]aFGF and [125I]bFGF at saturation to flg in presence of unlabelled ligand: 100 fold molar excess of unlabelled ligand
Experimental: (§1) Bovine derived aFGF, purified as previously described (Burgess, et al., J. Biol. Chem., 260: 11389-11392 (1985)), human recombinant bFGF (a kind gift of Dr. Moscatelli) and human recombinant kFGF (a kind gift of Dr. Claudio Basilico) were radioiodinated using the protocol for Enzymobeads (BioRad). The specific activity of the radiolabelled ligand was determined by radioisotope dilution using the respective unlabelled competitsr. The concentrations of the unlabelled ligands were determined by amino acid analysis (Jaye, et al., 1987 supra). The specific activity of the different preparations of [^125 I]aFGF varied between 130,000-760,000 cpm/ng and the specific activity for [^125 I]bFGF between 50,000-500,000 cpm/ng. The specific activity of [^125 I]kFGF varied from 50,000-200,000 cpm/ng. The binding assay was performed as follows: Fibronectin-coated 24 well dishes containing 1×10^5 cells/well were placed on ice, and the wells were rinsed twice with cold binding buffer (DMEM, 1 mg/ml BSA, 5 U/ml heparin, 50 mM Hepes, pH 7.4). Dishes were incubated on ice with 1 ml of ice cold binding buffer for 20 minutes, followed by 2 hours at 4° C. with serial dilutions of the [^125 I]FGF in cold binding buffer without heparin. Nonspecific binding was obtained using the same serial dilutions but in the presence of 100 fold molar excess of non-radioactive aFGF. After incubation, the cells were placed on-ice and rinsed twice with ice cold binding buffer minus heparin and then solubilized in 0.3N NaOH 37° C., 15 minutes. When [^125 I]bFGF was used the cells were placed on ice after incubation, washed three times with PBS, twice with 1 ml 2M NaCl in 20 mM Hepes, pH 7.5 and twice with 1 ml 2M NaCl in 20 mM sodium acetate, pH 4.0. The radioactivity released by the acid 2M NaCl wash represents specific binding to high affinity sites (Moscatelli, J. Cell. Physiol., 131: 123-130 (1987)). Acidic and basic FGF were radioiodinated and purified on heparin-Sepharose as described above. The dissociation constants of bek and fiq for aFGF and bFGF were established by saturation binding analysis of the overexpressing cell lines with the iodinated ligands. Binding of both aFGF and bFGF to bek and flg was specific and saturable (FIG. 6A, inserts). […] Also kFGF binds to bek with similar affinity as does bFGF but binds to flg with 4-foldless avidity than does bFGF. The data from additional experiments yield apparent Kds of aFGF for flg in the range of 20-80 pM and for bek in the range of 40-100 pM. […] The range of values probably arises from determinations of the specific activity and biological integrity of different preparations of the iodinated ligands. […] These conclusions were supported by competition (isotope dilution) experiments in which increasing amounts of nonradioactive aFGF or bFGF competed for binding with [^125 I]aFGF and [^125 I]bFGF to flg- and bek-overexpressing cells.

bek = assay: Saturation (equilibrium) binding of [125I]FGF to bek-overexpressing cells, Scatchard analysis; design: species or system human; conditions: for binding of [125I]aFGF and [125I]bFGF at saturation to bek in presence of unlabelled ligand: 100 fold molar excess of unlabelled ligand
Experimental: as §1

[1] = data from additional experiments, read-out: apparent Kd for flg, range
[2] = typical experiment, Scatchard analysis, flg-overexpressing NIH 3T3 cells (flg26), 4° C., read-out: affinity (dissociation constant) for flg
[3] = within any single experiment, compared to aFGF
[4] = data from additional experiments, read-out: apparent Kd for bek, range
[5] = typical experiment, Scatchard analysis, bek-overexpressing NIH 3T3 cells (bek8; bek13 for kFGF), 4° C., read-out: affinity (dissociation constant) for bek

## bFGF: human recombinant basic fibroblast growth factor, radioiodinated for binding
flg
  binding of [125I]aFGF and [125I]bFGF at saturation to flg in presence of unlabelled ligand: completely eliminated
flg; [1]
  Kd: 0.05 to 0.15 nM
flg; [2]
  Kd: 0.047 nM
flg; [3]
  fold lower affinity for flg compared to aFGF: approximately 2 fold
bek
  binding of [125I]aFGF and [125I]bFGF at saturation to bek in presence of unlabelled ligand: completely eliminated
bek; [4]
  Kd: 0.08 to 0.15 nM
bek; [5]
  Kd: 0.082 nM
bek; [3]
  fold lower affinity for bek compared to aFGF: approximately 2 fold

B1: aFGF: Bovine derived acidic fibroblast growth factor, purified, radioiodinated for binding (protein, UniProt P03968 16-155, looked up)
Fibroblast growth factor 1: FNLPLGNYKKPKLLYCSNGGYFLRILPDGTVDGTKDRSDQHIQLQLCAESIGEVYIKSTETGQFLAMDTDGLLYGSQTPNEECLFLERLEENHYNTYISKKHAEKHWFVGLKKNGRSKLGPRTHFGQKAILFLPLPVSSD
modifications: radioiodinated
flg
  binding of [125I]aFGF and [125I]bFGF at saturation to flg in presence of unlabelled ligand: completely eliminated
flg; [1]
  Kd: 0.02 to 0.08 nM
flg; [2]
  Kd: 0.024 nM
bek
  binding of [125I]aFGF and [125I]bFGF at saturation to bek in presence of unlabelled ligand: completely eliminated
bek; [4]
  Kd: 0.04 to 0.1 nM
bek; [5]
  Kd: 0.047 nM

B2: kFGF: human recombinant kFGF, member of the FGF family, radioiodinated for binding (protein, UniProt P08620 31-206, looked up)
Fibroblast growth factor 4: APTAPNGTLEAELERRWESLVALSLARLPVAAQPKEAAVQSGAGDYLLGIKRLRRLYCNVGIGFHLQALPDGRIGGAHADTRDSLLELSPVERGVVSIFGVASRFFVAMSSKGKLYGSPFFTDECTFKEILLPNNYNAYESYKYPGMFIALSKNGKTKKGNRVSPTMKVTHFLPRL
modifications: radioiodinated
flg; compared to bFGF
  fold less avidity for flg than bFGF: 4 fold
flg; [2]
  Kd: 0.32 nM
bek; [5]
  Kd: 0.08 nM
